Experimental data reported in patent US20260176319A1 (KALLYOPE, published 2026).
Starred links: 1 amine or outer side, 2 acyl side, 3 side chain; linkers in the order of their positions; H or OH if unused. Non-standard residues stand in square brackets, D forms with d. *: point of attachment. Trp(7-Me) = Cc1cccc2c(C[C@H](N)C(=O)O)c[nH]c12; d(γGlu) = O=C(O)[C@@H](CCC(=O)[*:2])N[*:1]; C18 diacid = O=C(O)CCCCCCCCCCCCCCCCC(=O)*; Palmitoyl = CCCCCCCCCCCCCCCC(=O)*; 3Pal = N[C@@H](Cc1cccnc1)C(=O)O; Nle = CCCC[C@H](N)C(=O)O; AEEA = NCCOCCOCC(=O)O; Aib = CC(C)(N)C(=O)O; Sar = CNCC(=O)O

B1: Peptide 71 (peptide)
peptide: {C18 diacid}-[d(γGlu)][AEEA][AEEA]K(Ac)HWAV[dA]HL[Nle]-NH2
SMILES: CCCC[C@H](NC(=O)[C@H](CC(C)C)NC(=O)[C@H](Cc1c[nH]cn1)NC(=O)[C@@H](C)NC(=O)[C@@H](NC(=O)[C@H](C)NC(=O)[C@H](Cc1c[nH]c2ccccc12)NC(=O)[C@H](Cc1c[nH]cn1)NC(=O)[C@H](CCCCNC(C)=O)NC(=O)COCCOCCNC(=O)COCCOCCNC(=O)CC[C@@H](NC(=O)CCCCCCCCCCCCCCCCC(=O)O)C(=O)O)C(C)C)C(N)=O
B2: Peptide 64 (peptide)
peptide: {C18 diacid}-[d(γGlu)][AEEA][AEEA]GN[3Pal]WAV[dA]HL[Nle]-NH2
SMILES: CCCC[C@H](NC(=O)[C@H](CC(C)C)NC(=O)[C@H](Cc1c[nH]cn1)NC(=O)[C@@H](C)NC(=O)[C@@H](NC(=O)[C@H](C)NC(=O)[C@H](Cc1c[nH]c2ccccc12)NC(=O)[C@H](Cc1cccnc1)NC(=O)[C@H](CC(N)=O)NC(=O)CNC(=O)COCCOCCNC(=O)COCCOCCNC(=O)CC[C@@H](NC(=O)CCCCCCCCCCCCCCCCC(=O)O)C(=O)O)C(C)C)C(N)=O
B3: Peptide 72 (peptide)
peptide: {C18 diacid}-[d(γGlu)][AEEA][AEEA]GN[3Pal]WAV[dA]HL[Nle][Sar]-NH2
SMILES: CCCC[C@H](NC(=O)[C@H](CC(C)C)NC(=O)[C@H](Cc1c[nH]cn1)NC(=O)[C@@H](C)NC(=O)[C@@H](NC(=O)[C@H](C)NC(=O)[C@H](Cc1c[nH]c2ccccc12)NC(=O)[C@H](Cc1cccnc1)NC(=O)[C@H](CC(N)=O)NC(=O)CNC(=O)COCCOCCNC(=O)COCCOCCNC(=O)CC[C@@H](NC(=O)CCCCCCCCCCCCCCCCC(=O)O)C(=O)O)C(C)C)C(=O)N(C)CC(N)=O
B4: Peptide 69 (peptide)
peptide: {C18 diacid}-[d(γGlu)][AEEA][AEEA]GNHWAV[dA]HLR-NH2
SMILES: CC(C)C[C@H](NC(=O)[C@H](Cc1c[nH]cn1)NC(=O)[C@@H](C)NC(=O)[C@@H](NC(=O)[C@H](C)NC(=O)[C@H](Cc1c[nH]c2ccccc12)NC(=O)[C@H](Cc1c[nH]cn1)NC(=O)[C@H](CC(N)=O)NC(=O)CNC(=O)COCCOCCNC(=O)COCCOCCNC(=O)CC[C@@H](NC(=O)CCCCCCCCCCCCCCCCC(=O)O)C(=O)O)C(C)C)C(=O)N[C@@H](CCCNC(=N)N)C(N)=O
B5: Peptide 74 (peptide)
peptide: {C18 diacid}-[d(γGlu)][AEEA][AEEA][Aib]NHWAV[dA]HL[Nle]-NH2
SMILES: CCCC[C@H](NC(=O)[C@H](CC(C)C)NC(=O)[C@H](Cc1c[nH]cn1)NC(=O)[C@@H](C)NC(=O)[C@@H](NC(=O)[C@H](C)NC(=O)[C@H](Cc1c[nH]c2ccccc12)NC(=O)[C@H](Cc1c[nH]cn1)NC(=O)[C@H](CC(N)=O)NC(=O)C(C)(C)NC(=O)COCCOCCNC(=O)COCCOCCNC(=O)CC[C@@H](NC(=O)CCCCCCCCCCCCCCCCC(=O)O)C(=O)O)C(C)C)C(N)=O
B6: Peptide 76 (peptide)
peptide: {C18 diacid}-[d(γGlu)][AEEA][AEEA]GNH[Trp(7-Me)]AV[dA]HL[Nle][Aib]-NH2
SMILES: CCCC[C@H](NC(=O)[C@H](CC(C)C)NC(=O)[C@H](Cc1c[nH]cn1)NC(=O)[C@@H](C)NC(=O)[C@@H](NC(=O)[C@H](C)NC(=O)[C@H](Cc1c[nH]c2c(C)cccc12)NC(=O)[C@H](Cc1c[nH]cn1)NC(=O)[C@H](CC(N)=O)NC(=O)CNC(=O)COCCOCCNC(=O)COCCOCCNC(=O)CC[C@@H](NC(=O)CCCCCCCCCCCCCCCCC(=O)O)C(=O)O)C(C)C)C(=O)NC(C)(C)C(N)=O
B7: Peptide 77 (peptide)
peptide: {C18 diacid}-[d(γGlu)][AEEA][AEEA]GK(Ac)HWAV[dA]HL[Nle][Sar]-NH2
SMILES: CCCC[C@H](NC(=O)[C@H](CC(C)C)NC(=O)[C@H](Cc1c[nH]cn1)NC(=O)[C@@H](C)NC(=O)[C@@H](NC(=O)[C@H](C)NC(=O)[C@H](Cc1c[nH]c2ccccc12)NC(=O)[C@H](Cc1c[nH]cn1)NC(=O)[C@H](CCCCNC(C)=O)NC(=O)CNC(=O)COCCOCCNC(=O)COCCOCCNC(=O)CC[C@@H](NC(=O)CCCCCCCCCCCCCCCCC(=O)O)C(=O)O)C(C)C)C(=O)N(C)CC(N)=O
B8: Peptide 73 (peptide)
peptide: {C18 diacid}-[d(γGlu)][AEEA][AEEA]GN[3Pal][Trp(7-Me)]AV[dA]HL[Nle][Sar]-NH2
SMILES: CCCC[C@H](NC(=O)[C@H](CC(C)C)NC(=O)[C@H](Cc1c[nH]cn1)NC(=O)[C@@H](C)NC(=O)[C@@H](NC(=O)[C@H](C)NC(=O)[C@H](Cc1c[nH]c2c(C)cccc12)NC(=O)[C@H](Cc1cccnc1)NC(=O)[C@H](CC(N)=O)NC(=O)CNC(=O)COCCOCCNC(=O)COCCOCCNC(=O)CC[C@@H](NC(=O)CCCCCCCCCCCCCCCCC(=O)O)C(=O)O)C(C)C)C(=O)N(C)CC(N)=O
B9: Peptide 78 (peptide)
peptide: {C18 diacid}-[d(γGlu)][AEEA][AEEA][AEEA][AEEA]GNH[Trp(7-Me)]AV[dA]HL-NH2
SMILES: Cc1cccc2c(C[C@H](NC(=O)[C@H](Cc3c[nH]cn3)NC(=O)[C@H](CC(N)=O)NC(=O)CNC(=O)COCCOCCNC(=O)COCCOCCNC(=O)COCCOCCNC(=O)COCCOCCNC(=O)CC[C@@H](NC(=O)CCCCCCCCCCCCCCCCC(=O)O)C(=O)O)C(=O)N[C@@H](C)C(=O)N[C@H](C(=O)N[C@H](C)C(=O)N[C@@H](Cc3c[nH]cn3)C(=O)N[C@@H](CC(C)C)C(N)=O)C(C)C)c[nH]c12
B10: Peptide 66 (peptide)
peptide: {C18 diacid}-[d(γGlu)][AEEA][AEEA]GNHWAV[dA][3Pal]L[Nle]-NH2
SMILES: CCCC[C@H](NC(=O)[C@H](CC(C)C)NC(=O)[C@H](Cc1cccnc1)NC(=O)[C@@H](C)NC(=O)[C@@H](NC(=O)[C@H](C)NC(=O)[C@H](Cc1c[nH]c2ccccc12)NC(=O)[C@H](Cc1c[nH]cn1)NC(=O)[C@H](CC(N)=O)NC(=O)CNC(=O)COCCOCCNC(=O)COCCOCCNC(=O)CC[C@@H](NC(=O)CCCCCCCCCCCCCCCCC(=O)O)C(=O)O)C(C)C)C(N)=O
B11: Peptide 4 (peptide)
peptide: {C18 diacid}-[d(γGlu)][AEEA][AEEA]GNHWAV[Aib]HL[Nle]-NH2
SMILES: CCCC[C@H](NC(=O)[C@H](CC(C)C)NC(=O)[C@H](Cc1c[nH]cn1)NC(=O)C(C)(C)NC(=O)[C@@H](NC(=O)[C@H](C)NC(=O)[C@H](Cc1c[nH]c2ccccc12)NC(=O)[C@H](Cc1c[nH]cn1)NC(=O)[C@H](CC(N)=O)NC(=O)CNC(=O)COCCOCCNC(=O)COCCOCCNC(=O)CC[C@@H](NC(=O)CCCCCCCCCCCCCCCCC(=O)O)C(=O)O)C(C)C)C(N)=O
B12: Peptide 70 (peptide)
peptide: {C18 diacid}-[d(γGlu)][AEEA][AEEA]GEHW[Aib]V[dA]HL[Nle]-NH2
SMILES: CCCC[C@H](NC(=O)[C@H](CC(C)C)NC(=O)[C@H](Cc1c[nH]cn1)NC(=O)[C@@H](C)NC(=O)[C@@H](NC(=O)C(C)(C)NC(=O)[C@H](Cc1c[nH]c2ccccc12)NC(=O)[C@H](Cc1c[nH]cn1)NC(=O)[C@H](CCC(=O)O)NC(=O)CNC(=O)COCCOCCNC(=O)COCCOCCNC(=O)CC[C@@H](NC(=O)CCCCCCCCCCCCCCCCC(=O)O)C(=O)O)C(C)C)C(N)=O
B13: Peptide 65 (peptide)
peptide: {C18 diacid}-[d(γGlu)][AEEA][AEEA]GK(Ac)HWAV[dA]HL[Nle]-NH2
SMILES: CCCC[C@H](NC(=O)[C@H](CC(C)C)NC(=O)[C@H](Cc1c[nH]cn1)NC(=O)[C@@H](C)NC(=O)[C@@H](NC(=O)[C@H](C)NC(=O)[C@H](Cc1c[nH]c2ccccc12)NC(=O)[C@H](Cc1c[nH]cn1)NC(=O)[C@H](CCCCNC(C)=O)NC(=O)CNC(=O)COCCOCCNC(=O)COCCOCCNC(=O)CC[C@@H](NC(=O)CCCCCCCCCCCCCCCCC(=O)O)C(=O)O)C(C)C)C(N)=O
B14: Peptide 67 (peptide)
peptide: {C18 diacid}-[d(γGlu)][AEEA][AEEA]GEHWAV[dA][3Pal]L[Nle]-NH2
SMILES: CCCC[C@H](NC(=O)[C@H](CC(C)C)NC(=O)[C@H](Cc1cccnc1)NC(=O)[C@@H](C)NC(=O)[C@@H](NC(=O)[C@H](C)NC(=O)[C@H](Cc1c[nH]c2ccccc12)NC(=O)[C@H](Cc1c[nH]cn1)NC(=O)[C@H](CCC(=O)O)NC(=O)CNC(=O)COCCOCCNC(=O)COCCOCCNC(=O)CC[C@@H](NC(=O)CCCCCCCCCCCCCCCCC(=O)O)C(=O)O)C(C)C)C(N)=O
B15: Peptide 75 (peptide)
peptide: Palmitoyl-[d(γGlu)][AEEA][AEEA]GNHWAV[dA]HL[Nle][Aib]-NH2
SMILES: CCCCCCCCCCCCCCCC(=O)N[C@H](CCC(=O)NCCOCCOCC(=O)NCCOCCOCC(=O)NCC(=O)N[C@@H](CC(N)=O)C(=O)N[C@@H](Cc1c[nH]cn1)C(=O)N[C@@H](Cc1c[nH]c2ccccc12)C(=O)N[C@@H](C)C(=O)N[C@H](C(=O)N[C@H](C)C(=O)N[C@@H](Cc1c[nH]cn1)C(=O)N[C@@H](CC(C)C)C(=O)N[C@@H](CCCC)C(=O)NC(C)(C)C(N)=O)C(C)C)C(=O)O
B16: Peptide 68 (peptide)
peptide: {C18 diacid}-[d(γGlu)][AEEA][AEEA]GNHHAV[dA]HL[Nle]-NH2
SMILES: CCCC[C@H](NC(=O)[C@H](CC(C)C)NC(=O)[C@H](Cc1c[nH]cn1)NC(=O)[C@@H](C)NC(=O)[C@@H](NC(=O)[C@H](C)NC(=O)[C@H](Cc1c[nH]cn1)NC(=O)[C@H](Cc1c[nH]cn1)NC(=O)[C@H](CC(N)=O)NC(=O)CNC(=O)COCCOCCNC(=O)COCCOCCNC(=O)CC[C@@H](NC(=O)CCCCCCCCCCCCCCCCC(=O)O)C(=O)O)C(C)C)C(N)=O

Target: human GRP receptor (human, UniProt P30550 1-384)
Assay: cell-based or functional assay

Chain of human GRP receptor (P30550 whole entry): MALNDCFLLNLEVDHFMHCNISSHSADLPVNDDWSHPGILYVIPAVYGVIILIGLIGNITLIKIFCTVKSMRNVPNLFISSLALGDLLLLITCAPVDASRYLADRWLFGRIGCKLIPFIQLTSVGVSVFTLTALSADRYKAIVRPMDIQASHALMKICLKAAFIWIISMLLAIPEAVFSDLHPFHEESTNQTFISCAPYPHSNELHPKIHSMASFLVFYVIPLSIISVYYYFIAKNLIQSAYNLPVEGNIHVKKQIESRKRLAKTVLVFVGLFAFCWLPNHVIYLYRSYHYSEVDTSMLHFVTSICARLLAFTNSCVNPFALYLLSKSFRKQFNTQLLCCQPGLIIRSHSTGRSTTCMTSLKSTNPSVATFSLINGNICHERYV

hIP1 GRPR EC50 | Binder
6.2 nM | B1
49.4 nM | B2
1050 nM | B3
> 10000 nM | B4
25.5 nM | B5
358 nM | B6
184 nM | B7
7.5 nM | EXXGNHWAVGHLM (Octadecanedioyl-D-γGlu-OEG-OEG-Gly-Asn-His-Trp-Ala-Val-Gly-His-Leu-Met-NH2) [Peptide 5]
1190 nM | B8
14 nM | B9
308 nM | B10
1420 nM | B11
972 nM | B12
6.05 nM | B13
1050 nM | B14
18.2 nM | B15
> 10000 nM | B16
